Laboratory results: patent US20230295310A1 (ABCELLERA BIOLOGICS, published 2023)
Positions count from the first letter of the chain named. Blank lines part the entries; values can stand above or below the binder they belong to.

Biological target: EGFR on HeLa cells (UniProt P00533 25-1210, limits assumed)
Experiment: cell-based or functional assay

X… HeLa EC50: 0.111 nM
B1: GOMP001_bsAb_018 (bispecific antibody, human IgG1, kappa, L234A L235A)
heavy 1: EVQLVESGGDLVQPGRSLRLSCAASGFTFDDCVIHWVRKAPGKGLEWVSGITWNSGRIGYADEVKGRFTISRDNAKNSLYLQMNSLRVEDTALYYCAKEGNYDFWSTYYRGYFDLWGRGTLVTVSSASTKGPSVFPLAPSSKSTSGGTAALGCLVADYFPEPVTVSWNSGALTSGVHTFPAVLQSSGLYSLSSVVTVPSSSLGTQTYICNVNHKPSNTKVDEKVEPKSCDKTHTCPPCPAPEAAGGPSVFLFPPKPKDTLMISRTPEVTCVVVDVSHEDPEVKFNWYVDGVEVHNAKTKPREEQYNSTYRVVSVLTVLHQDWLNGKEYKCKVSNKALPAPIEKTISKAKGQPREPQVYTLPPSREEMTDNQVSLTCLVKGFYPSDIAVEWESNGQPENNYKTTPPVLMSDGSFFLASKLTVDKSRWQQGNVFSCSVMHEALHNHYTQKSLSLSPG
light 1: RIQMTQSPSSLSASVGDRVTITCRASQGIRNDLGWYQDKPGIAPKRLIYAASSLQGGVPLRFSGSGSGTEFTLTISSLQPEDFATYYCLQHNSYPYTFGQGTKLEIKRTVAAPSVFIFPPSDKQLKSGTARVVCLLNNFYPREAKVQWKVDNALQSGNSQESVTEQDSKDSTYSLSSTLTLSKADYEKHKVYACEVTHQGLSSPVTKSFNRGEC
heavy 2: QVQLVQSGAEVKKPGASVKVSCKASGYTFTSHWMHWVRYAPGQGLEWIGEFNPSNGRTNYNEKFKSKATMTVDTSTNTAYMELSSLRSEDTAVYYCASRDYDYDGRYFDYWGRGTLVTVSSASTKGPSVFPLAPSSKSTSGGTAALGCLVKDYFPEPVTVSWNSGALTSGVHTFPAVLQSSGLYSLSSVVTVPSSSLGTQTYICNVNHKPSNTKVDKKVEPKSCDKTHTCPPCPAPEAAGGPSVFLFPPKPKDTLMISRTPEVTCVVVDVSHEDPEVKFNWYVDGVEVHNAKTKPREEQYNSTYRVVSVLTVLHQDWLNGKEYKCKVSNKALPAPIEKTISKAKGQPRRPRVYTLPPSREEMTKNQVSLVCLVKGFYPSDIAVEWESNGQPENNYKTTPPVLDSDGSFFLYSVLTVDKSRWQQGNVFSCSVMHEALHNHYTQKSLSLSPG
light 2: DIQMTQSPSSLSASVGDRVTITCSASSSVTYMYWYQRKPGDAPKLLIYDTSNLASGVPSRFSGSGSGTDYTFTISSLQPEDIATYYCQQWSSHIFTFGQGTKVEIKRTVAAPSVFIFPPSDEQLKSGTASVVCLLNNFYPREAKVQWKVDNALQSGNSQESVTEQDSKDSTYSLSSTLTLSKADYEKHKVYACEVTHQGLSSPVTKSFNRGEC
Max killing %: 97.3%

B2: GOMP001_bsAb_019 (bispecific antibody, human IgG1, kappa, L234A L235A)
heavy 1: QVQLVQSGAEVKKPGASVKVSCKASGYTFTSHWMHWVRKAPGQGLEWIGEFNPSNGRTNYNEEFKSKATMTVDTSTNTAYMELSSLRSEDTAVYYCASRDYDYDGRYFDYWGQGTLVTVSSASTKGPSVFPLAPSSKSTSGGTAALGCLVADYFPEPVTVSWNSGALTSGVHTFPAVLQSSGLYSLSSVVTVPSSSLGTQTYICNVNHKPSNTKVDEKVEPKSCDKTHTCPPCPAPEAAGGPSVFLFPPKPKDTLMISRTPEVTCVVVDVSHEDPEVKFNWYVDGVEVHNAKTKPREEQYNSTYRVVSVLTVLHQDWLNGKEYKCKVSNKALPAPIEKTISKAKGQPREPQVYTLPPSREEMTDNQVSLTCLVKGFYPSDIAVEWESNGQPENNYKTTPPVLMSDGSFFLASKLTVDKSRWQQGNVFSCSVMHEALHNHYTQKSLSLSPG
light 1: B1 light 2 with D1R, R37D, D41K, E122K, S130R
heavy 2: EVQLVDSGGGLVQPGGSLRLSCSGSGFTFSSYWMSWVRYAPGKGLEWVANIKQDGSQKYYVDRVKGRFTISRDNVKNSLYLQMNSLRVEDTAVYYCARDESSSWYWYFDLWGRGTLVTVSSASTKGPSVFPLAPSSKSTSGGTAALGCLVKDYFPEPVTVSWNSGALTSGVHTFPAVLQSSGLYSLSSVVTVPSSSLGTQTYICNVNHKPSNTKVDKKVEPKSCDKTHTCPPCPAPEAAGGPSVFLFPPKPKDTLMISRTPEVTCVVVDVSHEDPEVKFNWYVDGVEVHNAKTKPREEQYNSTYRVVSVLTVLHQDWLNGKEYKCKVSNKALPAPIEKTISKAKGQPRRPRVYTLPPSREEMTKNQVSLVCLVKGFYPSDIAVEWESNGQPENNYKTTPPVLDSDGSFFLYSVLTVDKSRWQQGNVFSCSVMHEALHNHYTQKSLSLSPG
light 2: DIQMTQSPSTLSASVGDRVTLTCRASQNIVKWLAWYQRKPGDAPKLLIYKASSLESGVPSWFSGSGSGTEFTLTINSLQPDDFATYYCQQYYTYSRTFGQGTKVEIKRTVAAPSVFIFPPSDEQLKSGTASVVCLLNNFYPREAKVQWKVDNALQSGNSQESVTEQDSKDSTYSLSSTLTLSKADYEKHKVYACEVTHQGLSSPVTKSFNRGEC
Max killing %: 48.3%
